Measurements from patent US20250388666A1 (BRIGHAM AND WOMEN S HOSPITAL, published 2025).

Biological target: T1, CEACAM1 (Sino Biological) (human, UniProt P13688 35-428, limits assumed)
T1 construct: may be the same as CEACAM1-HIS; also called hCEACAM1; biotinylated soluble CEACAM1
T1 sequence: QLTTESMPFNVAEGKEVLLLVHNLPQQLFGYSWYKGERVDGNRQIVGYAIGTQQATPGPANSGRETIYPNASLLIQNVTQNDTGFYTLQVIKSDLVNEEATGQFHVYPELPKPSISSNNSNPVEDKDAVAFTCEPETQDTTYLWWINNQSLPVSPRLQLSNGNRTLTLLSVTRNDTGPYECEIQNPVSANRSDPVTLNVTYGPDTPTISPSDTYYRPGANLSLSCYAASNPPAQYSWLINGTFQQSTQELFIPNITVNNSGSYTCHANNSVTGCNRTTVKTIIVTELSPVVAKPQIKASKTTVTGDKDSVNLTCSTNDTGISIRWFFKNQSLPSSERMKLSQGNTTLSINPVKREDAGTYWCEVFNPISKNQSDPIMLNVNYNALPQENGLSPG
Experiment: SPR single-cycle
In short: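 Humanized affinity-matured IgGs from crude supernatants captured on Protein A to ~100 RU, with CEACAM1 analyte injected at 25–100 nM (three-point, two-fold) in HBS-P+ without regeneration. 200 s association per injection, 300 s single dissociation; reference-channel and blank subtracted.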

B1: He14/L16 (antibody, IgG4, V domains shown)
VH: EVQLLESGGGLVQPGGSLRLSCAASGFSFSDYYLYWVRQAPGKGLEWVATISVGGGQTSYADSVKGRFTISRDNSKNTLYLQMNSLRAEDTAMYYCTRGLYYGPSWVAYWGQGTLVTVSS
VL: DIVMTQSPDSLAVSLGERATINCKSSQSLLNSANQKNYLAWYQQKPGQPPKLLIYFASTRESGVPDRFSGSGSGTDFTLTISSLQAEDVAVYYCQSHYPYPFTFGGGTKVEIK
notes: IgG4 S241P, kappa
Kd: 93 nM
fold better than Parent (KD): 1.7 fold

B2: He17/L17 (antibody, IgG4, V domains shown)
VH: EVQLLESGGGLVQPGGSLRLSCAASGFSFSDYYLYWVRQAPGKGLEWVATISVGGGQTSYADSVKGRFTISRDNSKNTLYLQMNSLRAEDTAMYYCTRARTYGPAWFAYWGQGTLVTVSS
VL: DIVMTQSPDSLAVSLGERATINCKSSQSLLNSANQKNYLAWYQQKPGQPPKLLIYFASTRESGVPDRFSGSGSGTDFTLTISSLQAEDVAVYYCQSHYPYPYTFGGGTKVEIK
notes: IgG4 S241P, kappa
Kd: 104 nM
fold better than Parent (KD): 1.53 fold

B3: He14/L20 (antibody, IgG4, V domains shown)
VH: EVQLLESGGGLVQPGGSLRLSCAASGFSFSDYYLYWVRQAPGKGLEWVATISVGGGQTSYADSVKGRFTISRDNSKNTLYLQMNSLRAEDTAMYYCTRGLYYGPSWVAYWGQGTLVTVSS
VL: DIVMTQSPDSLAVSLGERATINCKSSQSLLNSANQKNYLAWYQQKPGQPPKLLIYFASTRESGVPDRFSGSGSGTDFTLTISSLQAEDVAVYYCQSHFPYPLTFGGGTKVEIK
notes: IgG4 S241P, kappa
Kd: 114 nM
fold better than Parent (KD): 1.39 fold

B4: He17/L5 (antibody, IgG4, V domains shown)
VH: EVQLLESGGGLVQPGGSLRLSCAASGFSFSDYYLYWVRQAPGKGLEWVATISVGGGQTSYADSVKGRFTISRDNSKNTLYLQMNSLRAEDTAMYYCTRARTYGPAWFAYWGQGTLVTVSS
VL: DIVMTQSPDSLAVSLGERATINCKSSQSLLNSANQKNYLAWYQQKPGQPPKLLIYFASTRESGVPDRFSGSGSGTDFTLTISSLQAEDVAVYYCQSHYPFAFTFGGGTKVEIK
notes: IgG4 S241P, kappa
Kd: 81 nM
fold better than Parent (KD): 1.97 fold

B5: He14/L18 (antibody, IgG4, V domains shown)
VH: EVQLLESGGGLVQPGGSLRLSCAASGFSFSDYYLYWVRQAPGKGLEWVATISVGGGQTSYADSVKGRFTISRDNSKNTLYLQMNSLRAEDTAMYYCTRGLYYGPSWVAYWGQGTLVTVSS
VL: DIVMTQSPDSLAVSLGERATINCKSSQSLLNSANQKNYLAWYQQKPGQPPKLLIYFASTRESGVPDRFSGSGSGTDFTLTISSLQAEDVAVYYCQSHFPYPFTFGGGTKVEIK
notes: IgG4 S241P, kappa
Kd: 91 nM
fold better than Parent (KD): 1.75 fold

B6: He14/L17 (antibody, IgG4, V domains shown)
VH: EVQLLESGGGLVQPGGSLRLSCAASGFSFSDYYLYWVRQAPGKGLEWVATISVGGGQTSYADSVKGRFTISRDNSKNTLYLQMNSLRAEDTAMYYCTRGLYYGPSWVAYWGQGTLVTVSS
VL: DIVMTQSPDSLAVSLGERATINCKSSQSLLNSANQKNYLAWYQQKPGQPPKLLIYFASTRESGVPDRFSGSGSGTDFTLTISSLQAEDVAVYYCQSHYPYPYTFGGGTKVEIK
notes: IgG4 S241P, kappa
Kd: 97 nM
fold better than Parent (KD): 1.64 fold

B7: He14/L19 (antibody, IgG4, V domains shown)
VH: EVQLLESGGGLVQPGGSLRLSCAASGFSFSDYYLYWVRQAPGKGLEWVATISVGGGQTSYADSVKGRFTISRDNSKNTLYLQMNSLRAEDTAMYYCTRGLYYGPSWVAYWGQGTLVTVSS
VL: DIVMTQSPDSLAVSLGERATINCKSSQSLLNSANQKNYLAWYQQKPGQPPKLLIYFASTRESGVPDRFSGSGSGTDFTLTISSLQAEDVAVYYCQSHIYPNFTFGGGTKVEIK
notes: IgG4 S241P, kappa
Kd: 87 nM
fold better than Parent (KD): 1.83 fold

B8: He17/L4#2 (antibody, IgG4, V domains shown)
VH: EVQLLESGGGLVQPGGSLRLSCAASGFSFSDYYLYWVRQAPGKGLEWVATISVGGGQTSYADSVKGRFTISRDNSKNTLYLQMNSLRAEDTAMYYCTRARTYGPAWFAYWGQGTLVTVSS
VL: DIVMTQSPDSLAVSLGERATINCKSSQSLLNSANQKNYLAWYQQKPGQPPKLLIYFASTRESGVPDRFSGSGSGTDFTLTISSLQAEDVAVYYCQSHYPYPYTFGGGTKVEIK
notes: IgG4 S241P, kappa
Kd: 258 nM
fold better than Parent (KD): 2.14 fold

B9: He17/L6 (antibody, IgG4, V domains shown)
VH: EVQLLESGGGLVQPGGSLRLSCAASGFSFSDYYLYWVRQAPGKGLEWVATISVGGGQTSYADSVKGRFTISRDNSKNTLYLQMNSLRAEDTAMYYCTRARTYGPAWFAYWGQGTLVTVSS
VL: DIVMTQSPDSLAVSLGERATINCKSSQSLLNSANQKNYLAWYQQKPGQPPKLLIYFASTRESGVPDRFSGSGSGTDFTLTISSLQAEDVAVYYCQSHYPFSFTFGGGTKVEIK
notes: IgG4 S241P, kappa
Kd: 79 nM
fold better than Parent (KD): 2.01 fold

B10: He17/L4 #1 (antibody, IgG4, V domains shown)
VH: EVQLLESGGGLVQPGGSLRLSCAASGFSFSDYYLYWVRQAPGKGLEWVATISVGGGQTSYADSVKGRFTISRDNSKNTLYLQMNSLRAEDTAMYYCTRARTYGPAWFAYWGQGTLVTVSS
VL: DIVMTQSPDSLAVSLGERATINCKSSQSLLNSANQKNYLAWYQQKPGQPPKLLIYFASTRESGVPDRFSGSGSGTDFTLTISSLQAEDVAVYYCQSHFPYYYTFGGGTKVEIK
notes: IgG4 S241P, kappa
Kd: 165 nM
fold better than Parent (KD): 0.96 fold

B11: He17/L3 (antibody, IgG4, V domains shown)
VH: EVQLLESGGGLVQPGGSLRLSCAASGFSFSDYYLYWVRQAPGKGLEWVATISVGGGQTSYADSVKGRFTISRDNSKNTLYLQMNSLRAEDTAMYYCTRARTYGPAWFAYWGQGTLVTVSS
VL: DIVMTQSPDSLAVSLGERATINCKSSQSLLNSANQKNYLAWYQQKPGQPPKLLIYFASTRESGVPDRFSGSGSGTDFTLTISSLQAEDVAVYYCQSHFPFPFTFGGGTKVEIK
notes: IgG4 S241P, kappa
Kd: 95 nM
fold better than Parent (KD): 1.68 fold

B12: He17/L18 (antibody, IgG4, V domains shown)
VH: EVQLLESGGGLVQPGGSLRLSCAASGFSFSDYYLYWVRQAPGKGLEWVATISVGGGQTSYADSVKGRFTISRDNSKNTLYLQMNSLRAEDTAMYYCTRARTYGPAWFAYWGQGTLVTVSS
VL: DIVMTQSPDSLAVSLGERATINCKSSQSLLNSANQKNYLAWYQQKPGQPPKLLIYFASTRESGVPDRFSGSGSGTDFTLTISSLQAEDVAVYYCQSHFPYPFTFGGGTKVEIK
notes: IgG4 S241P, kappa
Kd: 98 nM
fold better than Parent (KD): 1.62 fold

B13: He17/L2 (antibody, IgG4, V domains shown)
VH: EVQLLESGGGLVQPGGSLRLSCAASGFSFSDYYLYWVRQAPGKGLEWVATISVGGGQTSYADSVKGRFTISRDNSKNTLYLQMNSLRAEDTAMYYCTRARTYGPAWFAYWGQGTLVTVSS
VL: DIVMTQSPDSLAVSLGERATINCKSSQSLLNSANQKNYLAWYQQKPGQPPKLLIYFASTRESGVPDRFSGSGSGTDFTLTISSLQAEDVAVYYCQSHYPFPYTFGGGTKVEIK
notes: IgG4 S241P, kappa
Kd: 82 nM
fold better than Parent (KD): 1.95 fold

B14: He17/L19 (antibody, IgG4, V domains shown)
VH: EVQLLESGGGLVQPGGSLRLSCAASGFSFSDYYLYWVRQAPGKGLEWVATISVGGGQTSYADSVKGRFTISRDNSKNTLYLQMNSLRAEDTAMYYCTRARTYGPAWFAYWGQGTLVTVSS
VL: DIVMTQSPDSLAVSLGERATINCKSSQSLLNSANQKNYLAWYQQKPGQPPKLLIYFASTRESGVPDRFSGSGSGTDFTLTISSLQAEDVAVYYCQSHIYPNFTFGGGTKVEIK
notes: IgG4 S241P, kappa
Kd: 135 nM
fold better than Parent (KD): 1.18 fold

B15: He14/Parent VL (antibody, IgG4, V domains shown)
VH: EVQLLESGGGLVQPGGSLRLSCAASGFSFSDYYLYWVRQAPGKGLEWVATISVGGGQTSYADSVKGRFTISRDNSKNTLYLQMNSLRAEDTAMYYCTRGLYYGPSWVAYWGQGTLVTVSS
VL: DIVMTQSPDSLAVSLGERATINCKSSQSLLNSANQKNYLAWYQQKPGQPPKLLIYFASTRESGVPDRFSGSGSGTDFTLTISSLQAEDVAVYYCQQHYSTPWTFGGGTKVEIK
notes: IgG4 S241P, kappa
Kd: 88 nM
fold better than Parent (KD): 1.8 fold
